Experimental data as given in patent US20250242041A1 (Seagen, published 2025).

Molecular target: T1, cyno αvβ6 on 293F:cynoβ6 cells (human;Macaca fascicularis, UniProt P06756 31-1048; A0A2K5TZ36 22-787)
T1 chain 1: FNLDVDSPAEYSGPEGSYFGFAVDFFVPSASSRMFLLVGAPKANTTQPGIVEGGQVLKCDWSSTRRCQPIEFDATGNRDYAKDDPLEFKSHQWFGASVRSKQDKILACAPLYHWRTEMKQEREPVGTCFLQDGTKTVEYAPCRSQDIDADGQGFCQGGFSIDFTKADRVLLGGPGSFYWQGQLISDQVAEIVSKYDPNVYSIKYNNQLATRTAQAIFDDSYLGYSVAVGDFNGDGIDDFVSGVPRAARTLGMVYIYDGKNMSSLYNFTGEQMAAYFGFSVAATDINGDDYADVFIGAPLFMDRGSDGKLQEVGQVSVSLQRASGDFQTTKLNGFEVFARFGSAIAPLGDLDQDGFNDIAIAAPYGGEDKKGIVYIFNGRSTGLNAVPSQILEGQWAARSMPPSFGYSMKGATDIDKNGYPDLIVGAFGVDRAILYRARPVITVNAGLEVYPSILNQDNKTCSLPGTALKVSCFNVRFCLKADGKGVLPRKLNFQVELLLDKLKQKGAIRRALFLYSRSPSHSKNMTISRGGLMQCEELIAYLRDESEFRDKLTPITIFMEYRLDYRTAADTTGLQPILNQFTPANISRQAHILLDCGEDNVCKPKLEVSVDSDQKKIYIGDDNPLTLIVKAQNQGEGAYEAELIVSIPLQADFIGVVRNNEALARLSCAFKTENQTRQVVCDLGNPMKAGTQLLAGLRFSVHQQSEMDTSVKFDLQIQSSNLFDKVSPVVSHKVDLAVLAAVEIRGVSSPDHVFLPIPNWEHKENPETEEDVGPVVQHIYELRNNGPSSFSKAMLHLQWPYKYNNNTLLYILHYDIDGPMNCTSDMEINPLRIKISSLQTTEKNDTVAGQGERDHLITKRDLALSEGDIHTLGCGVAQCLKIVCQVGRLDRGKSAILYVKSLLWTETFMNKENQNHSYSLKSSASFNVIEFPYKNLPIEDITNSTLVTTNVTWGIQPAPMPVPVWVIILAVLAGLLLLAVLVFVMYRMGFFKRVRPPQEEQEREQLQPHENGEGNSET
T1 chain 2: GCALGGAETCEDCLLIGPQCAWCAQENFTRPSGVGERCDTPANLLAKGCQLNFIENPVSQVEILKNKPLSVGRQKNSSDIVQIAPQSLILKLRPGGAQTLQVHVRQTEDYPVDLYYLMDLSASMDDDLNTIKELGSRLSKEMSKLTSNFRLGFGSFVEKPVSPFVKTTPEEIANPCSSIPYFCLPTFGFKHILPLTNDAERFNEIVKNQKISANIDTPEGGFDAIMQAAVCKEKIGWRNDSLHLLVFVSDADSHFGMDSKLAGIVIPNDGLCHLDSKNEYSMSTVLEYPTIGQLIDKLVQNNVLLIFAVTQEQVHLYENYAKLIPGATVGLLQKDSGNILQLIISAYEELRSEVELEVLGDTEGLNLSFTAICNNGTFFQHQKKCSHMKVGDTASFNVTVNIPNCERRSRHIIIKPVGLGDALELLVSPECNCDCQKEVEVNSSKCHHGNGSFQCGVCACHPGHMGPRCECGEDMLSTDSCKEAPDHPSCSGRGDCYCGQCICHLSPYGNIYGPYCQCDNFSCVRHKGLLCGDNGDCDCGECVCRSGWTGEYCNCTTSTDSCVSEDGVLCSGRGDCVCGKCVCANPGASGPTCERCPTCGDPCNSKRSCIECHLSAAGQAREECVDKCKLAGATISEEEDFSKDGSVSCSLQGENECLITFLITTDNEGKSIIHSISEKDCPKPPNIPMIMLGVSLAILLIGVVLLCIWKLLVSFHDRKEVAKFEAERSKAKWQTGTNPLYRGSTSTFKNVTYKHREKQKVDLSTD
Test: saturation binding on 293F cells; AF647-labeled

- EC50: 0.2 nM
B1: h2A2 HCLG humanized antibody (antibody, human IgG1, kappa, V domains shown)
VH: QFQLVQSGAEVKKPGASVKVSCKASGYSFTDYNVNWVRQAPGQGLEWIGVINPKYGTTRYNQKFKGRATLTVDKSTSTAYMELSSLRSEDTAVYYCTRGLNAWDYWGQGTLVTVSS
VL: DIQMTQSPSSLSASVGDRVTITCGASENIYGALNWYQQKPGKAPKLLIYGATNLEDGVPSRFSGSGSGRDYTFTISSLQPEDIATYYCQNVLTTPYTFGQGTKLEIKR
notes: Labelled with AlexaFluor-647 in the saturation assay; also called humanized 2A2 HCLG
